Data published in US20210162028A1, “Methods for Inducing Intermittent Fasting and Modulating Autophagy” (The Hong Kong Polytechnic University, priority 2019, published 2021).

What was measured:
Assay type in all cases: in vivo, mouse
[1] = Blood pressure and heart rate by tail-cuff method; conditions: DIO C57BL/6J male mice on HFD; about 600 U once a week; measured at 12 and 27 weeks
Source text: FIG. 9 illustrates that administration of N-ABD094-rhArg (SEQ ID NO: 50) to DIO male mice fed a HFD [HFD (rhArg) group] in FIG. 1 for 34 weeks could reduce heart mass, and lower blood pressure and heart rate to levels similar to that of the lean control mice [CD (vehicle) group]. (A) Heart mass. (B-E) Systolic and diastolic blood pressure (B, D) and heart rate (C, E) measured respectively at 12 weeks (B, C) and 27 weeks (D, E) after rhArg treatment by tail-cuff method using Noninvasive Blood Pressure Monitoring System (CODA Scientific). *P<0.05, one-way ANOVA followed by Bonferroni test. Data are expressed as mean±SEM.
Other than liver, obesity is also commonly associated with lipid accumulation in the kidney (renal steatosis) and heart (cardiac steatosis), causing lipotoxicity and dysfunction of these organs. Indeed, there was an increase in kidney and heart mass in DIO mice treated with vehicle (FIG. 8A and FIG. 9A).

[2] = Whitening of brown adipose tissue (size, mass, H&E histology); conditions: DIO C57BL/6J male mice on HFD; 600 U once a week, 12 weeks
Source text: FIG. 53 illustrates that administration of 600 U N-ABD094-rhArg (SEQ ID NO: 50) once a week to C57BL/6J male mice with pre-existing HFD-induced obesity [HFD (rhArg) group] for 12 weeks could effectively reverse whitening of brown adipose tissue (BAT), with lipids stored as a large single globule (characteristic feature of white adipocytes) changing to storage of lipids in multiple small droplets (characteristic feature of brown adipocytes), which was in line with the findings of induction of lipophagy observed by TEM. […] (B) The mass of iBAT of the 3 groups of mice was in line with the size shown in A. *P<0.05, one-way ANOVA followed by Bonferroni test. Data are expressed as mean±SEM, n=5 for each group.
After prolonged feeding on a HFD, there was a further increase in the size (FIG. 53A) and weight of the interscapular BAT (FIG. 53B) in vehicle-treated DIO mice [HFD (vehicle) group] in comparison to the lean control mice [CD (vehicle) group], which was correlated with the presence of massive amount of enlarged white-like unilobular cells (FIG. 53A). As observed under transmission electron microscopy, brown adipocyte in mice fed with HFD [HFD (vehicle) group] had massive enlarged lipid droplets (FIG. 52A). […] Many autophagosomes were actively forming and engulfing the lipid droplets (FIG. 52B). […]

[3] = Fat pad and organ mass at end of treatment
hepatocyte = test: Transmission electron microscopy of liver (hepatocytes); conditions: for TEM of liver: autophagosomes / TEM of liver: lipid droplets: DIO C57BL/6J male mice on HFD, 3 weeks, Day 3
Source text: FIG. 47 illustrates the liver examined by transmission electron microscopy at Day 1, Day 3, Day 5 and Day 7 of the 7-day intermittent after N-ABD094-rhArg injection.
The presence of autophagosome in liver after treatment for 3 weeks were examined by TEM (FIGS. 62, 63 and 64).
The presence of autophagosome in liver after treatment for 3 weeks were examined by transmission electron microscopy (FIGS. 71 and 72).

Rotarod test = test: Rotarod test
[4] = Survival of very old mice; conditions: 25-month old C57BL/6J male mice on chow diet; weekly for 30 weeks; vehicle 20%
Source text: Specific autophagy upregulation in Caenorhabditis elegans and Drosophila extends lifespan, and drugs that induce autophagy, such as rapamycin, promote longevity in rodents (Hansen et al., Nature Reviews Molecular Cell Biology. 2018; 19:579-593). For C57BL/6J mice, over 24 months of age can be considered “very old” and survivorship drops off markedly (https://www.jax.org/news-and-insights/jax-blog/2017/november/when-are-mice-considered-old). To determine whether N-ABD094-rhArg (SEQ ID NO: 50), which induces systemic upregulation of autophagy, can increase longevity, very old C57BL/6J male mice at 25 months of age (equivalent to seventy in humans) fed an ordinary chow diet were separated into 2 groups. One group was treated once weekly with 600 U N-ABD094-rhArg (SEQ ID NO: 50) [CD Very Old (rhArg) group] for 30 weeks while another group was treated with vehicle [CD Very Old (vehicle) group]. A group of C57BL/6J male mice at 7 months of age (equivalent to early thirties in humans) treated with vehicle [CD Young (vehicle) group] served as the reference of progressive changes from mature adult to late middle age over the 30-week period.

[5] = DIO C57BL/6J male mice on HFD, 300 U rhArg once a week and/or 300 mg/kg metformin daily
[6] = DIO C57BL/6J male mice on HFD, 600 U once a week, 5 weeks (artificial IF experiment)
[7] = 300 U/week rhArg and/or 300 mg/kg metformin
[8] = rhArg weekly and/or 0.33 mg RA daily
[9] = HFD-fed male mice, 600 U once a week, 4 weeks

B1: N-ABD094-rhArg: recombinant human arginase fused to albumin binding domain ABD094 (SEQ ID NO: 50); engineered long-acting arginine-depleting enzyme (protein)
chain: MHHHHHHDEAVDANSLAEAKEAANAELDSYGVSDFYKRLIDKAKTVEGVEALKDAILAALPSGSNNNNNNGSGGMSAKSRTIGIIGAPFSKGQPRGGVEEGPTVLRKAGLLEKLKEQECDVKDYGDLPFADIPNDSPFQIVKNPRSVGKASEQLAGKVAEVKKNGRISLVLGGDHSLAIGSISGHARVHPDLGVIWVDAHTDINTPLTTTSGNLHGQPVSFLLKELKGKIPDVPGFSWVTPCISAKDIVYIGLRDVDPGEHYILKTLGIKYFSMTEVDRLGIGKVMEETLSYLLGRKKRPIHLSFDVDGLDPSFTPATGTPVVGGLTYREGLYITEEIYKTGLLSGLDIMEVNPSLGKTPEEVTRTVNTAVAITLACFGLAREGNHKPIDYLNPPK
modifications: N-ABD094-rhArg, Synthesized in the Lab
notes: engineered long-acting arginine-depleting enzyme
Blood pressure and heart rate [1]: levels similar to the age-matched lean control mice | White-like unilobular cells in BAT (histology) [2]: almost complete remission of white-like unilobular cells | Fat pad mass of perirenal and inguinal WAT, interscapular BAT and liver mass ([3]; 17-month old C57BL/6J male mice on chow diet, once a week, 21 weeks): significant reduction in the fat pad mass | Mass of liver ([3]; 17-month old C57BL/6J male mice on chow diet, once a week, 21 weeks, versus CD Old (vehicle) and CD Young (vehicle)): the lowest amongst all 3 groups | Mass of organs including liver, kidney and BAT [3, 5]: cannot reduce the mass of most organs | Visceral and subcutaneous fat mass [3, 5]: did not reduce body fat | Fat pad mass of perirenal and inguinal WAT and interscapular BAT [3, 6]: marked reduction in the fat pad mass | Liver mass [3, 6]: prominently reduced to the same extent for both groups | Liver weight ([3]; DIO C57BL/6J male mice on HFD, 600 U once a week, 12 weeks): the weight was similar to the lean control | Fatty pancreas ([3]; DIO C57BL/6J male mice on HFD, half dose alone): can also reverse the fatty pancreas | Mass of organs including liver, pancreas and BAT ([3]; DIO C57BL/6J male mice on HFD, rhArg once a week alone or 0.33 mg RA daily alone): can already reduce the mass of most organs | Visceral and subcutaneous fat mass ([3]; DIO C57BL/6J male mice on HFD, rhArg once a week and/or 0.33 mg RA daily): did not reduce body fat | Fat pad mass (WAT, BAT) and liver, kidney and heart mass ([3]; DIO ICR female mice on HFD, once a week, 56 weeks): significantly less than that of HFD-fed mice treated with vehicle | TEM of liver: autophagosomes (hepatocyte; [7]): autophagosome was rarely seen | TEM of liver: lipid droplets (hepatocyte; [7]): significant decrease in lipid droplet size | TEM of liver: autophagosomes (hepatocyte; 300 U/week rhArg and/or 300 mg/kg metformin, listed as N-ABD-rhArg (SEQ ID NO: 50)): no autophagosome is observed | TEM of liver: autophagosomes (hepatocyte; [8]): autophagosome was rarely seen | TEM of liver: lipid droplets (hepatocyte; [8]): significant decrease in lipid droplet size | TEM of liver: autophagosomes (hepatocyte; rhArg weekly and/or 0.33 mg RA daily, listed as N-ABD-rhArg (SEQ ID NO: 50)): no autophagosome is observed | TEM of liver, Day 1 of the 7-day cycle (hepatocyte; [9]): autophagosomes and autolysosomes were found in the hepatocye | TEM of liver, Day 3 of the 7-day cycle (hepatocyte; [9]): extensive lipophagy was observed | TEM of liver, Day 5 of the 7-day cycle (hepatocyte; [9]): autolysosome and lipophagy became rare | TEM of liver, Day 7 of the 7-day cycle (hepatocyte; [9]): no autophagosome and no lipophagy was observed | Rotarod test: latency to fall (Rotarod test; DIO C57BL/6J male mice on HFD, weekly for 30 weeks): latency similar to mice in CD (vehicle) group | Rotarod test: performance (Rotarod test; DIO ICR female mice on HFD, weekly, at 55 weeks): significantly better than mice in HFD (vehicle) group | Survival rate [4]: 80%
